IntAct's records for PubMed 29039417

B1: BBSome complex member BBS4 (Homo sapiens), Q96RK4 (parent)
chain: MAEERVATRTQFPVSTESQKPRQKKAPEFPILEKQNWLIHLHYIRKDYEACKAVIKEQLQETQGLCEYAIYVQALIFRLEGNIQESLELFQTCAVLSPQSADNLKQVARSLFLLGKHKAAIEVYNEAAKLNQKDWEISHNLGVCYIYLKQFNKAQDQLHNALNLNRHDLTYIMLGKIHLLEGDLDKAIEVYKKAVEFSPENTELLTTLGLLYLQLGIYQKAFEHLGNALTYDPTNYKAILAAGSMMQTHGDFDVALTKYRVVACAVPESPPLWNNIGMCFFGKKKYVAAISCLKRANYLAPFDWKILYNLGLVHLTMQQYASAFHFLSAAINFQPKMGELYMLLAVALTNLEDIENAKRAYAEAVHLDKCNPLVNLNYAVLLYNQGEKKNALAQYQEMEKKVSLLKDNSSLEFDSEMVEMAQKLGAALQVGEALVWTKPVKDPKSKHQTTSTSKPASFQQPLGSNQALGQAMSSAAAYRTLPSGAGGTSQFTKPPSLPLEPEPAVESSPTETSEQIREK
partner: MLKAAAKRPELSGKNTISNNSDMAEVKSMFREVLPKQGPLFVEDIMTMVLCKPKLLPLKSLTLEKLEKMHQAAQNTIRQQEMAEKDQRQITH

Variants of: B1
Conditions: with bbip1_human BBIP1, A8MTZ0

effect of a mutation on the interaction	Variant
disrupting interaction strength	G338E
disrupting interaction strength	G338R
with no effect	A329K
with no effect	K358A
with no effect	D353E
with no effect	D353A
disrupting interaction strength	V346E
with no effect	L340E
with no effect	L340A
with no effect	Y341K
disrupting interaction strength	Y341D
disrupting interaction strength	A330F
disrupting interaction strength	A330V
with no effect	C370A
with no effect	L343A
with no effect	L343E
disrupting interaction strength	L343H
disrupting interaction strength	L343T
disrupting interaction strength	N332I
with no effect	N332K
disrupting interaction strength	N332Y
disrupting interaction strength	L367P
with no effect	L367K
with no effect	D368A
with no effect	D368E
with no effect	K369E
disrupting interaction strength	L373S

effect of a mutation on the interaction	Variant
with no effect	L373E
with no effect	L344K
with no effect	R359A
with no effect	R359K
with no effect	E339K
with no effect	E355K
with no effect	E355A
with no effect	N350E
disrupting interaction strength	Y361C
with no effect	I331E
with no effect	F333A
with no effect	H366K
with no effect	H366E
disrupting interaction strength	P335T
with no effect	P335A
with no effect	P335K
with no effect	A362K
with no effect	A362E
with no effect	M337E
with no effect	P372E
with no effect	L348E
with no effect	L348A
disrupting interaction strength	A357V
disrupting interaction strength	M342T
disrupting interaction strength	M342W
with no effect	Q334K
with no effect	V374A

The remaining lines, values behind:

Variant	effect of a mutation on the interaction
A345V	disrupting interaction strength
A345T	disrupting interaction strength
A345E	with no effect
A345K	with no effect
E363A	with no effect
E363G	disrupting interaction strength
E363K	with no effect
A347K	with no effect
A347D	disrupting interaction strength
A347E	with no effect
G338K	with no effect
G338A	with no effect
A329E	with no effect
K358E	with no effect
D353K	with no effect
D353G	disrupting interaction strength
K336E	with no effect
K336A	with no effect
A360E	with no effect
A360K	with no effect
V346K	with no effect
V346A	disrupting interaction strength

Variant	effect of a mutation on the interaction
L340K	with no effect
L340F	disrupting interaction strength
Y341E	with no effect
Y341C	disrupting interaction strength
Y341A	disrupting interaction strength
A330K	with no effect
A330E	with no effect
C370K	with no effect
C370E	with no effect
L343K	with no effect
L343R	disrupting interaction strength
L343P	disrupting interaction strength
N332A	with no effect
N332E	with no effect
N332F	disrupting interaction strength
L367E	with no effect
L367A	with no effect
D368K	with no effect
D368G	disrupting interaction strength
K369A	with no effect
L373A	with no effect
L373K	with no effect

Variant	effect of a mutation on the interaction
V365E	with no effect
V365K	with no effect
V365A	with no effect
L344E	with no effect
L344A	with no effect
R359E	with no effect
E339A	with no effect
N350K	with no effect
N350A	with no effect
N350D	disrupting interaction strength
Y361K	with no effect
Y361E	with no effect
Y361A	with no effect
I331K	with no effect
I331A	with no effect
I331F	disrupting interaction strength
T349E	with no effect
T349K	with no effect
T349A	with no effect
F333E	with no effect
F333K	with no effect
L351P	disrupting interaction strength

Variant	effect of a mutation on the interaction
L351K	with no effect
L351A	with no effect
L351E	with no effect
H366A	with no effect
P335E	with no effect
E352K	with no effect
E352A	with no effect
N371A	with no effect
N371E	with no effect
N371K	with no effect
A364E	with no effect
A364K	with no effect
A364T	disrupting interaction strength
A364V	disrupting interaction strength
M337A	with no effect
M337K	with no effect
P372L	disrupting interaction strength
P372S	disrupting interaction strength
P372A	with no effect
P372K	with no effect
N356E	with no effect
N356A	with no effect

Variant	effect of a mutation on the interaction
N356K	with no effect
L327T	disrupting interaction strength
L327R	disrupting interaction strength
S328A	with no effect
S328E	with no effect
S328K	with no effect
L348R	disrupting interaction strength
L348T	disrupting interaction strength
L348K	with no effect
L348P	disrupting interaction strength
A357K	with no effect
A357E	with no effect
M342K	disrupting interaction strength
M342A	with no effect
M342R	disrupting interaction strength
M342E	with no effect
M342V	disrupting interaction strength
Q334D	disrupting interaction strength
Q334A	with no effect
Q334E	with no effect
V374E	with no effect
V374K	with no effect
